Molecular target: T1, conserved N-terminus of yeast Asf1 (residues 2–155) (S. cerevisiae, UniProt P32447 2-155)
T1 construct: Asf1 (anti-silencing function 1), budding yeast, residues 2-155; Written as a molecule of its own for the pair; also called Asf1N; ScAsf1; source: E. coli, purified (Ni-chromatography, TEV cleavage, second Ni step, gel filtration); not shown: His6, N-terminal, cleaved; MBP, N-terminal, cleaved
Assay: crystal structure; Asf1N fused to H3α3 by the linker AAGAATAA on one chain; hanging-drop vapor diffusion, 18°C, 85 mM Tris-HCl (pH 8.5), 120 mM Li2SO4, 25% PEG 4000, 15% glycerol; 2.2 Å
Conditions: both partners purified

T1 sequence (P32447 2-155): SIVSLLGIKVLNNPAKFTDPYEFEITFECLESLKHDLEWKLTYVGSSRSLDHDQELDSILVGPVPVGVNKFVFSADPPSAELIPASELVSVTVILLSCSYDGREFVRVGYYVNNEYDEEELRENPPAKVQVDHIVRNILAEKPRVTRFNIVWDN

B1: C-terminal α3 helix of yeast histone H3 (residues 121–134) (domain or fragment, S. cerevisiae, UniProt P61830 122-135, looked up)
chain: KKDIKLARRLRGER
notes: histone H3, budding yeast, C-terminal alpha helix, amino acids 121-134; The final model holds H3 residues 121-131 only; also called H3α3; ScH3 121-134; source: E. coli, purified (Ni-chromatography, TEV cleavage, second Ni step, gel filtration), as a fusion behind Asf1N
Question: Does B1 bind?
Answer: Result: binds

— publication PMC1762009, “Structure of the yeast histone H3-ASF1 interaction: implications for chaperone mechanism, species-specific interactions, and epigenetics” (BMC Structural Biology, 2006)
